“And” between values parts separate entries of the source, which are not always exact repeats. Equal entries are not always repeated. Where two headings read alike, the source gives them in different places.
Legend:
[1] = target: GmSKRP1 (protein used for isothermal titration calorimetry) (soybean); assay: ITC; 40 μM GmSKRP1 in the cell titrated with 400 μM PsAvr3c from the syringe; 25 °C; 20 mM HEPES pH 7.5, 200 mM NaCl; one-site binding model; three independent experiments
[2] = target: GmSKRP1 (protein used for isothermal titration calorimetry) (soybean); assay: as above; remark: listed apart in the source

For “PsAvr3c (protein used for isothermal titration calorimetry) (natural protein)”, the Kd [1] was 3.38 µM and 3.52 µM and 3.14 µM and the Kd [2] was 3.35 µM.

From article PMC5727057
